In patent publication US20130108613A1:

Target: monomeric synthetic human Aβ1-42 peptide (human)
Assay: cell-based or functional assay

Substance: recombinant NIa (nuclear inclusion a) protease of Turnip mosaic virus (TuMV), purified from E. coli (from UniProt P89509 2117-2359) (enzyme)
- reduction of monomeric Aβ level, densitometry of Western blot (6E10), 3 hrs at 25 °C, NIa pre-incubated with the cysteine protease inhibitor NEM: 33%
